Article PMC12700824 (Nature Structural & Molecular Biology, 2025)
Residue numbers refer to the chain shown, from its start. Values belong to the binder of their own block, whether it stands above or below them.

What was measured:
[1] = target: the molecule itself; test: dynamic light scattering (DLS); FAM118B24–334 WT at 10 µM in PBS pH 7.4, 20 °C
[2] = target: the molecule itself; test: SEC; analytical SEC, Superdex Increase 10/300 GL, 50 mM Tris pH 8, 200 mM NaCl, 0.5 mM TCEP; injection concentrations up to 20 µM (mutant mixture: 10 µM each); sizes are coarse estimates from globular standards
FAM118B24–334-F122R = target: T1, FAM118B24–334-F122R (human, UniProt Q9BPY3 24-334, F122R); test: ITC; 25 °C, PBS; FAM118B24–334-L32R in the syringe at 500 µM titrated into FAM118B24–334-F122R in the cell at 50 µM; conditions: both partners purified
T1 construct: also called head-surface mutant; not shown: His6, C-terminal, kept

B1: human FAM118B residues 24-334, C-terminally His-tagged, wild type (domain or fragment, UniProt Q9BPY3 24-334, looked up)
chain: PTKKPRKLLPSLKTKKPRELVLVIGTGISAAVAPQVPALKSWKGLIQALLDAAIDFDLLEDEESKKFQKCLHEDKNLVHVAHDLIQKLSPRTSNVRSTFFKDCLYEVFDDLESKMEDSGKQLLQSVLHLMENGALVLTTNFDNLLELYAADQGKQLESLDLTDEKKVLEWAQEKRKLSVLHIHGVYTNPSGIVLHPAGYQNVLRNTEVMREIQKLYENKSFLFLGCGWTVDDTTFQALFLEAVKHKSDLEHFMLVRRGDVDEFKKLRENMLDKGIKVISYGDDYADLPEYFKRLTCEISTRGTSAGMVREG
notes: not shown: His6, C-terminal, kept
stoichiometry N [1]: < 10 subunits
stoichiometry N [2]: > 8 protomers

stoichiometry N (FAM118B24–334-F122R): ~1
B2: FAM118B24–334-L32R (domain or fragment, human, UniProt Q9BPY3 24-334, looked up)
chain: B1 chain with L9R
notes: also called tail-surface mutant; not shown: His6, C-terminal, kept
